Measurements from paper PMC8258042.

Molecular target: cardiac troponin I (cTnI) (human, UniProt P19429 2-210)
Experiment: strand displacement

Chain of cardiac troponin I (cTnI) (P19429 2-210): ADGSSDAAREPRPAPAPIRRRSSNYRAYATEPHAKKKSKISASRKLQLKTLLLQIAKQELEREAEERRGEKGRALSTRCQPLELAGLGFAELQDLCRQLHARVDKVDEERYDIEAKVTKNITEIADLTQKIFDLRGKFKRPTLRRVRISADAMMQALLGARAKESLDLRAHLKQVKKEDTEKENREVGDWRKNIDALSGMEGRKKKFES

B1: Poly-T (ssDNA)
DNA: TTTTTTTTTTTTTTTTTTTTCTCATGCGCTGCCCCTCTTATTTTTTTTTTT
modifications: 3'-NH2
binding result: no binding
